From paper PMC3211139 (Molecular microbiology, 2011)
Several values for one entry are separate records, joined by “and”; a condition that tells them apart may be missing. Equal entries are not always repeated.

Target: the molecule itself
Assay: native gel or EMSA

B1: AtxA-His (natural protein)
chain: MLTPISIEKEHIRLINLLHFINEQNRWFTIKELSDYLQVADKTVRKYLKLLEDEIPPSWNLLVQKGKGIYLKKPLNESLSFVESKILRKSLNLQICEELVFKKNSMQSLAQKLHLQVGALYPIINQINYDIQSSHLNIKKKPLEISGREQDVRVFMLRLYCNIPNDYWPFPYINKQNITDLINKMEKILNVQMYTYSKHKLCVLFAITISRLLSGNTIDNVSGLILVNKNDDHYKTVASITSELQNSFGVTLHETEISFLALALLLSLGNSITTDSNKTLTSYKKTIMPLAKEITKGIEHKLQLGINYDESFLTYVVLIIKKALDKNFIQYYNYNIKFIRHIKQRHPNTFNTIQECISNLNYTVYSHFDCYEISLLTMHFETQRMLFKNNPKKIYVYTSQGCIHREYISALLEKRYNGLIKIVRNTIINLTNESLQDMEIDIIISNVNLPIKNIPIVQISEFPTERDFHEIKKII
In the case of B1, the “stoichiometry N” value is reported as 2 and 4.
